Measurements taken from US20080044412A1, “Single-Domain Antibody Strengthening Fusion Protein Vh-Ldp-Ae” (INSTITUTE OF MEDICINAL BIOTECHNOLOGY CHINESE ACADEMY OF …, priority 2004, published 2008).
“And” between values parts separate entries of the source, which are not always exact repeats. Identical values can stand only once.

Experiments:
[1] = system: transplanted hepatoma 22; assay: Transplanted hepatoma 22 growth in mice; settings: for Inhibition rate / Tumor volume x ± s: tail vein, day 14
Procedure: Kunming mice, weighing between 18-22 g, were randomly separated into different groups of 10 mice each. On day 0, hepatoma 22 cells (1.5×10^6 cells/0.2 ml/mouse) diluted with saline were transplanted subcutaneously into the right axilla of mice. On day 1 (after 24 h), the therapy was started and VH-LDP-AE at different doses, LDM at 0.05 mg/kg, mitomycin (MMC) at 1 mg/kg were administered respectively to the tumor bearing mice (0.2 ml/mouse) by injection into the tail vein. Mice of control group were injected with saline. Diameters of the tumors were measured every 3 days during the experiment. Weights of the mice were recorded. The tumor volumes were calculated with the following formula: V=0.5ab^2, where a and b is the long and the perpendicular short diameters of the tumor, respectively. The curves of tumor growth were plotted and the inhibition rates were calculated.

[2] = system: cecum carcinoma Hce-8693; settings: nude mice; cited from earlier work
[3] = system: KB cells; assay: MTT cytotoxicity assay, KB; type: cell-based, human; settings: 72 h
Procedure: (§1) MTT assay was used. After digestion and counting, cells in exponential growth phase were seeded at 3000 cells/well in 96-well plates, and cultured at 37° C. in 5% CO2 for 24 hours. Drugs of various concentrations were added with 3 aliquots, and the cells were cultured for another 72 h. 50 μl of MTT (2 mg/ml) in serum-free RPMI 1640 were added into each well, and the cells were cultured at 37° C. for 4 h. Remove the culture medium gently; add 150 μl DMSO each well; incubate at room temperature for 15 min on a shaker; measure the absorbance at 560 nm on a microplate reader. Survival ratio and IC50 values were calculated according to the following equation: Survival ratio=(Atest−Ablank)/(Acontrol−Ablank)×100%.

[4] = system: hepatoma Bel-7402; settings: nude mice; cited from earlier work
[5] = system: colon carcinoma 26; settings: cited from earlier work
[6] = system: PG cells; assay: MTT cytotoxicity assay, PG; type: cell-based; settings: 72 h
Procedure: as §1

[7] = system: HT-1080 cells; assay: MTT cytotoxicity assay, HT-1080; type: cell-based; settings: 72 h
Procedure: as §1

[8] = system: solid tumor of mouse hepatoma 22; assay: Immunohistochemical (SABC) staining of mouse hepatoma sections; type: binding; settings: FIG. 7
Procedure: (§2) Immunohistochemical (IHC) staining was performed by streptavidin-biotin-peroxidase complex (SABC) staining with SABC kit (Boster Company). The sections were blocked by normal goat serum for 20 min at room temperature and the excessive liquid was removed. The sections without washing were added with diluted said VH-LDP fusion protein as prepared in example 3 and incubated at room temperature; then diluted anti-His6-tag antibody and biotinylated goat-anti-mouse IgG were added in turn. Finally SABC reagent was added. DAB kit was used as a chromogen for visualized reaction at room temperature. The sections were counter-stained by hematoxylin, dehydrated, cleared, sealed, and observed with microscope.

[9] = system: human hepatoma SMMC-7721 cells; assay: ELISA immunoreactivity with fixed SMMC-7721 cells; type: binding; settings: FIG. 5
Procedure: (§3) Immunoreactivity of fusion protein VH-LDP was detected by ELISA. At first, type IV collagenase or tumor cells was coated or fixed to 96-well ELISA plates: well was coated with 100 μl of type IV collagenase (10 μg/ml, diluted by PBS) and the plates were stored at 4° C. overnight; Human hepatoma SMMC-7721 cells or human KB cells were seeded at 10^4/well in 96-well plates and cultured for 24 h, washed with PBS for 3 times, added 0.05% cold (4° C.) Glutaraldehyde and fixed for 15 min. Then the coated or fixed plates were washed with PBS 3 times, and blocked with 200 μl/well of 1% bovine serum albumin (BSA)/PBS at 4° C. overnight. The plates were washed 3 times with PBS. Then 200 μl of serial concentrations of fusion protein VH-LDP were added into each well of the plates and incubated for 2 hours at 37° C. Washing the plates 3 times with 0.05% Tween 20/PBS (PBST), adding 50 μl of anti-His6-Tag monoclonal antibody diluted 1:1500 to each well, and incubating at 37° C. for 1 h. Washing the plates 3 times with PBST, adding 50 μl of HRP conjugated goat anti-mouse IgG (at 1:2000 dilution), and incubating at 37° C. for 1 hour. Washing the plates with PBST 6 times, adding 100 μl of OPD substrate reaction solution to each well, incubating the plates at room temperature for 10 min in the dark. […] Then the optical density (OD) of each well was measured at 490 nm using a microplate reader.

[10] = system: type IV collagenase; assay: ELISA immunoreactivity with type IV collagenase; type: binding; settings: FIG. 4
Procedure: as §3

[11] = system: type IV collagenase secreted by HT-1080 cells; assay: Gelatin zymography in HT-1080 cells; type: cell-based; settings: 24 h, 25, 50, 100 μM (FIG. 8), dependent on concentration
Procedure: Gelatin zymography protocol was used. Exponentially growing HT-1080 cells were seeded at 10^5/well in 24-well plates and incubated at 37° C. in 5% CO2. After 24 h, the culture medium was removed and 1 ml serum-free RPMI 1640 medium was added for washing twice. Add 120 μl of serum-free RPMI 1640 medium and 30 μl of fusion protein VH-LDP as prepared in example 3 to each well, and add 30 μl PBS to control well. Culturing the cells at 37° C. for 24 h. Harvest the culture medium, and centrifuging at 500 g for 5 min. Then take the supernatant for non-denaturalization electrophoresis on SDS-PAGE. Wash the gels with distilled water 3 times. Put the gels into 100 ml of 2.5% TritonX-100, shake on a shaker for 30 min at low speed. Then Wash the gels 2 times with distilled water; repeat the washing process with TritonX-100 above. The gels was washed with distilled water 2 times, and incubated at 37° C. for 16-18 h in 100 ml of gelatinase buffer (50 mM Tris-HCl, pH 7.5, 200 mM NaCl, 10 mM CaCl2, 1 μM ZnCl2). The gels were stained with Coomassie-brilliant blue R-250 and destained with acetic acid: methanol:water (10:45:45). The negative stained bands were observed.

[12] = State of refolded fusion protein in PBS solution; type: physicochemical
Procedure: The inventors attempted to make fusion gene in the form of VH-LDP by fusing VH domain against type IV collagenase to apoprotein LDP of LDM, and then expressing the fusion protein in E. coli.
The fusion protein VH-LDP after purification was refolded: the purified protein was diluted to a final concentration of 15 μM with eluting buffer mentioned above, and β-mercaptoethanol was added to a final concentration of 10 mM. After being stored at room temperature for 30 min, the sample was placed in a dialysis bag and dialyzed against at least 50 vol. of refolding buffer 1 (50 mM Tris-HCl pH 8.0, 1 mM EDTA, 200 mM NaCl, 6 M urea). And the following dialysis was against the same buffer with step-wise reduction in the urea concentration (3M, 2M, 1M, 0.5M, and 0M). On a 1-M stage, 750 μM of glutathione (GSSG) and 400 mM of L-Arginine were added to the dialysis buffer. Then the sample was dialyzed against 50 vol. of PBS solution (pH 7.4). Each dialysis was performed for 12 h and with buffer changed twice. All dialysis was performed at 4° C. After dialysis, the sample was centrifuged at 10,000 g for 30 min at 4° C. and the supernatant was collected. After being condensed, the active fusion protein VH-LDP was obtained and stored at −20° C. for later use.

[13] = system: mouse normal liver sections; assay: Immunohistochemical (SABC) staining of mouse normal liver sections; type: binding; settings: FIG. 7
Procedure: as §2

[14] = system: human colon carcinoma HT-29 cells; assay: MTT combination assay on HT-29 cells (CDI); type: cell-based; settings: HT-29, MTT
Procedure: MTT assay was used. After trypsin-EDTA digestion, the human colon carcinoma HT-29 cells in exponential growth were seeded at 4000 cells/well in 96-well plates, and cultured for 24 hours. Then add 20 μl of different concentrations of hydroxylcamptothecin or 5-fluorouracil; 8 hours later, add different concentrations of VH-LDP-AE. Continue to culture the cells at 37° C. in 5% CO2 for 72 h. Add 50 μl of MTT at concentration of 2 mg/ml, culture the cells at 37° C. for 4 hours. Then remove the supernatant; add 150 μl DMSO each well; ten minutes later, measure the absorbance at 560 nm on a microplate reader. In cancer pharmacology, interactions of drug combination were evaluated by coefficient of drug interaction (CDI). There existed synergistic effects with CDI<1, and there existed very significant ones with CDI<0.7. […] It was usual that monoclonal antibodies were combined with anti-cancer drugs.

[15] = system: bFGF-stimulated angiogenesis; assay: Chick embryo allantoic membrane (CAM) anti-angiogenesis assay; type: in vivo; settings: 72 h, 0.5 μg/egg (FIG. 10)
Procedure: Anti-angiogenic activity of VH-LDP-AE was examined in chick embryoallantoic membrane assay (CAM). The surface of 7-day-old post-fertilization chick eggs (White Leghorn) in a 60% humidified incubator at 37° C. was sterilized and the CAM was […]) exposed by cutting a window (2 cm^2) on the egg shell using the false air-sac technique. After 24 h, 10 μl of bFGF was dipply added to agarose disks with the energized fusion protein VH-LDP-AE at various concentrations which was prepared as mentioned in Example 7, and then the disks were placed on top of the CAM. After the windows were sealed with transparent tape, the eggs were incubated for further 72 h.

CO[C@@]12[C@H](COC(N)=O)C3=C(C(=O)C(C)=C(N)C3=O)N1C[C@@H]1N[C@@H]12 [MMC, mitomycin]
Body weight begin ([1]; 1 mg/kg, begin): 18.82 g
Body weight end ([1]; 1 mg/kg, end (day 14)): 29.29 g
Inhibition rate ([1]; 1 mg/kg): 51.5^Δ %
Tumor volume x ± s ([1]; 1 mg/kg): 2.23 ± 2.15 cm^3
Inhibition rate ([1]; 1 mg/kg, listed as mitomycin): 51.5%

lidamycin [LDM]
growth of human cancer xenograft cecum carcinoma Hce-8693 [2]: potent inhibitory effect
Inhibition rate ([1]; 0.05 mg/kg): 79.6% and 79.6^ΔΔ %
Tumor volume x ± s ([1]; 0.05 mg/kg): 0.94 ± 0.53 cm^3
maximal tolerated dose ([1]; mice): 0.05 mg/kg
IC50 [3]: 1.08 pM
growth of human cancer xenograft hepatoma Bel-7402 [4]: potent inhibitory effect
growth of colon carcinoma 26 in mice [5]: remarkably inhibited
IC50 [6]: 6.3 pM
IC50 [7]: 2.21 pM

B1: VH-LDP: VH domain of anti-type IV collagenase mAb 3G11, GGGGS spacer, lidamycin apoprotein LDP and His6-Tag; SEQ ID NO: 2 (protein)
chain: MQVKLQQSGTEVVKPGASVKLSCKASGYIFTSYDIDWVRQTPEQGLEWIGWIFPGEGSTEYNEKFKGRATLSVDKSSSTAYMELTRLTSEDSAVYFCARGDYYRRYFDLWGQGTTVTVSSGGGGSAPAFSVSPASGLSDGQSVSVSVSGAAAGETYYIAQCAPVGGQDACNPATATSFTTDASGAASFSFVVRKSYTGSTPEGTPVGSVDCATAACNLGAGNSGLDLGHVALTFGLEHHHHHH
modifications: fusion protein of Vh and LDP
immunohistochemical staining in mouse hepatoma sections [8]: positively stained
binding activity to human hepatoma SMMC-7721 cells [9]: positive
binding activity to type IV collagenase [10]: positive
inhibition of type IV collagenase activity secreted by cancer cells [11]: inhibit significantly
solubility after refolding [12]: soluble in PBS solution
fraction existing in monomer state ([12]; after refolding): 75%
immunohistochemical staining in mouse normal liver sections [13]: negatively stained

B2: VH-LDP-AE (conjugate)
chain: B1 chain
modifications: AE chromophore assembled; fusion protein of Vh and LDP
coefficient of drug interaction (CDI) ([14]; 10 μM of 5-fluorouracil plus 3 ng/ml of VH-LDP-AE): < 0.7
coefficient of drug interaction (CDI) ([14]; hydroxylcamptothecin (1 μM) plus VH-LDP-AE (3 ng/ml)): < 0.7
Inhibition rate ([1]; 0.125 mg/kg): 88.1% and 88.1*^ΔΔ %
Tumor volume x ± s ([1]; 0.125 mg/kg): 0.55 ± 0.24 cm^3
Inhibition rate ([1]; 0.25 mg/kg): 95.9% and 95.9**^ΔΔ %
Tumor volume x ± s ([1]; 0.25 mg/kg): 0.19 ± 0.21 cm^3
effect on growth of hepatoma 22 in mice ([1]; both 0.25 mg/kg and 0.125 mg/kg, more potent than free lidamycin 0.05 mg/kg (FIG. 11)): inhibited or retarded the growth
body weight loss and side-effects during the experiments ([1]; mouse, in vivo): No body weight loss and other severe side-effects were found
suppression of angiogenesis stimulated by bFGF [15]: significantly suppress angiogenesis
